The values below come from patent US20030036092A1.

The target of the assay is fluorogenic OmpT peptide substrate (BODIPY / trimethylrhodamine). Kind of assay: cell-based or functional assay.

With “OmpT protease, wild type, expressed from multicopy plasmid pML19 in E. coli UT5600 (from UniProt P09169 21-317) (enzyme)”, the mean fluorescence intensity of cells by FACS after exposure to the fluorogenic substrate was 30 times.
